In one data set the target is T1, BhArgR (ArgR, Bh2777) (Halalkalibacterium halodurans, UniProt Q9K973).
T1 construct: full length, 149 residues; hexa-histidine tagged in SEC-MALS; trimer (57 kDa) without L-arginine, hexamer (114 kDa) with L-arginine
T1 sequence (Q9K973 1-149): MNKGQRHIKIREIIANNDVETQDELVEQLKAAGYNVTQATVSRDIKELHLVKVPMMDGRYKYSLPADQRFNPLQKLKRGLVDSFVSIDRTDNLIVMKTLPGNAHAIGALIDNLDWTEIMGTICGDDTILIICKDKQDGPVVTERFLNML
The data set is described as follows: SEC-MALS (trimer to hexamer shift); EMSA. The conditions noted are these: 10 mM L-arginine; SEC-MALS: 20 mM Tris-HCl pH 8.0, 200 mM NaCl, 2 mM MgCl2, 1 mM DTT; EMSA with argG ARG box DNA at 4 C; corepressor; indirect evidence of binding. On the technique in general: In gel filtration, larger molecules generally elute earlier.

Data set [1] addresses T2, BhArgR (Bacillus halodurans) (UniProt Q9K973).
T2 sequence: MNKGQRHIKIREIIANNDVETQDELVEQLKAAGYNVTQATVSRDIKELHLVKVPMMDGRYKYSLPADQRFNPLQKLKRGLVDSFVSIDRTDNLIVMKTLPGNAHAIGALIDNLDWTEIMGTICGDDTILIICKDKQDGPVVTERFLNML
The data set can be described thus: EMSA. The conditions noted are these: 50 mM Tris-HCl pH 7.5, 200 mM NaCl, 10 mM MgCl2, 10 mM CaCl2, 10% glycerol; on ice 40 min; 6% native PAGE in TBE pH 8.8 +/- 10 mM L-arginine, 4 C. Background: Mobility shift assays separate free from complexed probe on a gel.

Data set [2] deals with the molecule itself. The data set can be described thus: SEC-MALS; Superdex-200 10/300 GL, 20 mM Tris-HCl pH 8.0, 200 mM NaCl, 2 mM MgCl2, 1 mM DTT; 3~6 mg/ml injected; with 10 mM L-arginine.

`N=C(N)NCCC[C@H](N)C(=O)O` [L-arginine]: the “SEC-MALS (trimer to hexamer shift); EMSA” value on BhArgR (ArgR, Bh2777) is on record as “it formed a hexamer in the presence of L-arginine in multi-angle light scattering (MALS) studies”.
Regarding “CCCAGAATACGCTAAGACAACTTTCTTTTTGCTCATGCTAACAATCCCTCCAAAGTGAATATTCATACTCTTGTTATTATTTTTATACATCCACTTGCATAAAAAAAGGCCTGTATAAA (double strand) [119-bp cognate argG promoter DNA]”, in data set [1], the binding result is given as “binds”.

B1: Arginine repressor (ArgR, BH2777) from Bacillus halodurans (natural protein, UniProt Q9K973 1-149, looked up)
chain: MNKGQRHIKIREIIANNDVETQDELVEQLKAAGYNVTQATVSRDIKELHLVKVPMMDGRYKYSLPADQRFNPLQKLKRGLVDSFVSIDRTDNLIVMKTLPGNAHAIGALIDNLDWTEIMGTICGDDTILIICKDKQDGPVVTERFLNML
notes: Arginine repressor ArgR (BH2777), Bacillus halodurans, 149 amino acid residues; Met1, Asp2 and Lys3 were in the crystal but disordered, and the model covers residues 4-149; The tag is named for the SEC-MALS sample; Oligomer: trimer without L-arginine, hexamer with 10 mM L-arginine; also called BhArgR; B. halodurans ArgR; source: overexpressed and purified
Broadly, the stoichiometry N is the number of molecules, sites or subunits per partner or assembly. Take B1: in data set [2], the “stoichiometry N” value is 6.

Values taken from article PMC4865122, “Structural Analysis and Insights into the Oligomeric State of an Arginine-Dependent Transcriptional Regulator from Bacillus halodurans” (PLoS ONE, 2016).
